Data as given in US20260098866A1 (REMEGEN, published 2026).
One block for each binder: values may come before it.

Assays:
telitacicept [1] = biological target: T1, telitacicept; assay: competition ELISA; BLyS coated; 30 ng/ml telitacicept pre-incubated with 10-fold diluted supernatant; telitacicept bound to BLyS read with anti-human IgG Fc-HRP
T1 construct: TACI-Fc fusion protein drug; also called Tai ai; TACI-Fc fusion protein
T1 chain: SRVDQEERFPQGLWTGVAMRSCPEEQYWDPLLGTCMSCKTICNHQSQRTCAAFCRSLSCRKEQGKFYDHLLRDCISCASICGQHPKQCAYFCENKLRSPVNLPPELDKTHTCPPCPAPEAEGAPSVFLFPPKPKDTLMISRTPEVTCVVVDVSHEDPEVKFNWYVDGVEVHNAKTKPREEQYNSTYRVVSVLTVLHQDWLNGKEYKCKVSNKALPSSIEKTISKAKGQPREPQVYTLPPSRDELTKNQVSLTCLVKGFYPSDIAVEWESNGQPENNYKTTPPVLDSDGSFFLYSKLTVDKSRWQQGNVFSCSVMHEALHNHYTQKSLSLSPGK
Procedure: (§1) The hybridoma cells were cultured, and the supernatants were used for enzyme-linked immunosorbent assay (ELISA). BLyS (R&D Systems) was coated on a 96-well microplate and incubated at 4° C. overnight. The plate was blocked with 300 μl of 3% BSA-PBST per well and incubated at 37° C. for 3 h. The supernatants were diluted at ratios of 10-fold, 100-fold and 1000-fold with PBST and separately incubated with 30 ng/ml telitacicept for a given period. These mixtures were then added to the 96-well plate at 100 μl per well and incubated at 37° C. for 1 h. Goat anti-human IgG Fc-HRP (1:5000 dilution) was added at 100 μl per well and incubated at 37° C. for 1 h. 100 μL of substrate per well was added for color development, and the absorbance was read at 450 nm and 655 nm. Antibodies with high activity were screened based on the difference in absorbance between 450 nm and 655 nm, respectively.

telitacicept [2] = biological target: T1, telitacicept; assay: competition ELISA; BLyS coated; 30 ng/ml telitacicept pre-incubated with 100-fold diluted supernatant; telitacicept bound to BLyS read with anti-human IgG Fc-HRP
Procedure: as §1

telitacicept [3] = biological target: T1, telitacicept; assay: competition ELISA; BLyS coated; 30 ng/ml telitacicept pre-incubated with 1000-fold diluted supernatant; telitacicept bound to BLyS read with anti-human IgG Fc-HRP
Procedure: as §1

telitacicept [4] = biological target: T1, telitacicept; assay: BLI (Octet RH16); biotinylated 1B11D2 on SA biosensors, telitacicept as analyte; kinetic fit
Procedure: An Octet RH16 molecular interaction analyzer (Sartorius) was used. An appropriate amount of antibody 1B11D2 reacted with EZ-Link Sulfo-NHS-LC-LC-Biotin ([…]) at room temperature for 30 min followed by centrifugation with a Zeba spin desalting column to collect the biotinylated antibody 1B11D2.
The biotinylated antibody 1B11D2 was immobilized on Octet SA Biosensors ([…]) and telitacicept at various concentrations was used as the analyte. The detection curve was fitted by kinetic analysis to obtain the results.

Absorbance (450 nm - 655 nm) (telitacicept [1]): 0.057
Absorbance (450 nm - 655 nm) (telitacicept [2]): 0.215
Absorbance (450 nm - 655 nm) (telitacicept [3]): 0.448
B1: antibody 7G12F8 (antibody, mouse IgG1, kappa, V domains shown)
VH: EVQLQQSGPELVRPGASVKKSCKTSGYTFTAYALHWVKQSHGTSLEWIGGINPNHGGVSYNQKFKDKATLTVDKSSSTAYMELRSLTSEDSAVYYCARFRWDLYYGMDYWGQGTSVIVAS
VL: QIVLTQSPAIISVSSGEKVTMPCSDNSNMIYMYWNLWKPGTSPKRWIYDTSRLASGVPARFSGSGFGTSFSLTVSSMEAEDAATYYCHQRSIYSWTFGGGTKLEIKR
notes: Mouse hybridoma antibody, purified from the culture supernatant of cell line 7G12F8-1; The printed chains seem to include a leader peptide, but no cleavage site is stated; also called 7G12F8-1 (hybridoma cell line / culture supernatant)

Kd (telitacicept [4]): 0.325 nM
koff (telitacicept [4]): 0.000105 s⁻¹
kon (telitacicept [4]): 323000 M⁻¹ s⁻¹
Absorbance (450 nm - 655 nm) (telitacicept [1]): 0.016
Absorbance (450 nm - 655 nm) (telitacicept [2]): 0.141
Absorbance (450 nm - 655 nm) (telitacicept [3]): 0.454
B2: antibody 1B11D2 (antibody, mouse IgG1, kappa, V domains shown)
VH: EVQLQQSGPELVKPGASVKISCKTSGYTFTEFSMHWVQQSHGKSLEWIGGINPNHGGSSYNQKFKGKATLTVDKSSSTAYMELRSLTSEDSAVYYCARRGDYYGNLYYAMDYWGQGTSVTVSS
VL: SIVMTQTPKFLLVSVGDSITITCKASQSVSNDVVWYQQKPGQSPKLLIYYASNRYTGVPDRFTGSGYGTDFTFTITTVQAEDLAVYFCQQDYSSPWAFGGGTKLEIKR
notes: Mouse hybridoma antibody, purified from the culture supernatant of cell line 1B11D2-1; The printed heavy and light chains start with what looks like a leader peptide (MGWSW..., MKSQT...); also called 1B11D2-1 (hybridoma cell line / culture supernatant); TACI antibody (1B11D2)

Absorbance (450 nm - 655 nm) (telitacicept [1]): 0.082
Absorbance (450 nm - 655 nm) (telitacicept [2]): 0.242
Absorbance (450 nm - 655 nm) (telitacicept [3]): 0.443
B3: antibody 12C9F3 (antibody, mouse IgG1, kappa, V domains shown)
VH: EVQLQQSGPELVKPGASVKISCKTSGYTFTEYAMHWVKQSHGKSLEWIGGINPNHGGTSNNQKFKGKATLTVDKSSSTAYMDFRSLTSEDSAVYYCARWGTDPFFAYWGQGTLVTVSA
VL: DIVMTQSHKFMSTSVGDRVSITCKASQDVSTAVAWYQQKPGQSPKLLIYWASTRHTGVPDRFTGSGSGTDYTLTITSVQAEDLTLYYCHQHYAPPWTFGGGTKLEIKR
notes: Mouse hybridoma antibody, purified from the culture supernatant of cell line 12C9F3-1; The printed chains seem to include a leader peptide, but no cleavage site is stated; also called 12C9F3-1 (hybridoma cell line / culture supernatant)
